The target in experiment [1] is T1, recombinant VlsE protein (of strain B31) (Borreliella burgdorferi B31 (clone …, UniProt O06878)).
T1 construct: VlsE of B. burgdorferi B31, clone B31-5A3: the 585-bp vlsE cassette region (including the IR1 through VR6 regions), codon-optimized; 585 bp would encode about 195 residues; also called recombinant B31 VlsE; vlsE cassette; source: E. coli BL21 (pET24), purified (Ni-NTA); estimated purity ~65%
As to the kind of experiment: ELISA; validation of the specificity of the purified rMAbs: antigen (IR peptide or VlsE) fixed on the plate; dilution not told. The following applies: both partners purified.

The target of experiment [2] is T1, recombinant VlsE protein (of strain B31). As to the kind of experiment: ELISA; antigen (IR peptide or recombinant VlsE) coated on a 96-well plate at 10 ug/mL overnight at 4 C, blocked with 5% milk; supernatants of rabbit B cell lines applied; HRP anti-rabbit IgG secondary 1:30,000; OD450; reactive if more than 3 SD above the mean BSA reactivity. The following applies: one partner purified.

B1: recombinant monoclonal antibody 1D11-4 (antibody, V domains shown)
VH: QSLVESGGGLVQPEGSLTLTCKASGFSFSSGYDMCWVRQAPGKGLEYIACIDAGDDITHYASWVKGRFTVSKTSSTTVTLQLNSLTVADTATYFCGRFWDLWGPGTLVTVSS
VL: SSVLTQTPSPVSAAVGGTVTINCQSSQSVYDSTWLGWYQQKPGQPPKLLIYKASNLASGVPSRFKGSGSGTHFTLTISDLECDDAATYYCVGGYSGSVDNWAFGGGTEVVVK
notes: the antibody was detected with an anti-rabbit IgG secondary antibody; Only the variable regions are printed; also called anti-IR6 rMAb; source: made by GenScript
On to B1, for which the binding result in experiment [1] is “binds”.

B2: antibody in the supernatant of rabbit B cell line 1D11 (antibody, V domains shown)
VH: QSLVESGGGLVQPEGSLTLTCKASGFSFSSGYDMCWVRQAPGKGLEYIACIDAGDDITHYASWVKGRFTVSKTSSTTVTLQLNSLTVADTATYFCGRFWDLWGPGTLVTVSS
VL: SSVLTQTPSPVSAAVGGTVTINCQSSQSVYDSTWLGWYQQKPGQPPKLLIYKASNLASGVPSRFKGSGSGTHFTLTISDLECDDAATYYCVGGYSGSVDNWAFGGGTEVVVK
notes: Unpurified antibody of the cell line; also called anti-IR6 1D11 cell line
Turning to B2, the binding result in experiment [2] is recorded as “binds”.

B3: recombinant monoclonal antibody 15E2-1 (antibody, V domains shown)
VH: QSLEESGGGLFKPTDTLTLTCTVSGIDLSSYAMIWVRQAPGKGLEWIGYIWSSGRIWYASWAKGRFTISRTSTTVDLKLASPTTEDTATYFCARLWDIWGPGTLVTVSS
VL: AQVLTQTPSSVSAAVGGTVTISCQASQSLYNGVNLAWYQQKPGQPPKLLIFGASNLESGVSSRFRGSGSGTQFTLTISGVQCDDAATYYCLGEFSCSSADCLAFGGGTEVVVK
notes: the antibody was detected with an anti-rabbit IgG secondary antibody; Only the variable regions are printed; also called anti-IR4 rMAb; source: made by GenScript
In the case of B3, the binding result in experiment [1] is “binds”.

B4: antibody in the supernatant of rabbit B cell line 15E2 (antibody, V domains shown)
VH: QSLEESGGGLFKPTDTLTLTCTVSGIDLSSYAMIWVRQAPGKGLEWIGYIWSSGRIWYASWAKGRFTISRTSTTVDLKLASPTTEDTATYFCARLWDIWGPGTLVTVSS
VL: AQVLTQTPSSVSAAVGGTVTISCQASQSLYNGVNLAWYQQKPGQPPKLLIFGASNLESGVSSRFRGSGSGTQFTLTISGVQCDDAATYYCLGEFSCSSADCLAFGGGTEVVVK
notes: Unpurified antibody of the cell line
As for B4, the binding result in experiment [2] is recorded as “binds”.

B5: recombinant monoclonal antibody 17A8-1 (antibody, V domains shown)
VH: QSVEESGGRLVTPGTPLTLTCTVSGFPLSSYSMAWVRQAPGKGLEYIGFINTDGSAYYASWAKGRITISKTSTTVELKITSPTTEDTATYFCGTGNIWGPGTLVTVSS
VL: AQVLTQTPSSVSAAVGGTVTINCQASQSVSNNNVLAWFQQKPGQPPKRLIYSALTLDSGVPSRFKGSGSGTHFTLTISGVQCDDAATYYCAGGYDCSSNDCIAFGGGTEVVVK
notes: as for B3
As for B5, the binding result in experiment [1] is “binds”.

B6: antibody in the supernatant of rabbit B cell line 17A8 (antibody, V domains shown)
VH: QSVEESGGRLVTPGTPLTLTCTVSGFPLSSYSMAWVRQAPGKGLEYIGFINTDGSAYYASWAKGRITISKTSTTVELKITSPTTEDTATYFCGTGNIWGPGTLVTVSS
VL: AQVLTQTPSSVSAAVGGTVTINCQASQSVSNNNVLAWFQQKPGQPPKRLIYSALTLDSGVPSRFKGSGSGTHFTLTISGVQCDDAATYYCAGGYDCSSNDCIAFGGGTEVVVK
notes: as for B4
Take B6: the binding result in experiment [2] is “binds”.

B7: recombinant monoclonal antibody 28D3-1 (antibody, V domains shown)
VH: QSVEESGGRLVTPGTPLTLTCTVSGFSLSSYSMGWVRQAPGKGLEYIGMIISNNSTYYASWAKGRITISKTSTTVELKITSPTTEDTATYFCGTGNIWGPGTLVTVSS
VL: AQVLTQTPASVSAAVGGTVTINCQASQSTSNNNALAWFQQKPGQPPKRLIYSALTLDSGVPSRFKGSGSGTHFTLTISGVQCDDAATYYCAGGYDCSSNDCITFGGGTEVVVK
notes: as for B3
With B7, the binding result in experiment [1] is on record as “binds”.

B8: antibody in the supernatant of rabbit B cell line 28D3 (antibody, V domains shown)
VH: QSVEESGGRLVTPGTPLTLTCTVSGFSLSSYSMGWVRQAPGKGLEYIGMIISNNSTYYASWAKGRITISKTSTTVELKITSPTTEDTATYFCGTGNIWGPGTLVTVSS
VL: AQVLTQTPASVSAAVGGTVTINCQASQSTSNNNALAWFQQKPGQPPKRLIYSALTLDSGVPSRFKGSGSGTHFTLTISGVQCDDAATYYCAGGYDCSSNDCITFGGGTEVVVK
notes: as for B4
Regarding B8, the binding result in experiment [2] is “binds”.

The values above are taken from PMC9604149, “Evolution of the vls Antigenic Variability Locus of the Lyme Disease Pathogen and Development of Recombinant Monoclonal Antibodies Targeting Conserved VlsE Epitopes” (Microbiology Spectrum, 2022).
